These results are taken from the supplement of paper PMC7877785.

This data set in a line: self-splicing fitness, log relative to wild type (ln ratio); higher = more splicing; Tetrahymena group I intron in knt gene, E. coli kanamycin selection, DiMSum; sequences stand for … in CUCUCU…GGAGGGAAAAGUUAUCAGGCAUGCACCUGGUAGCUAGUCUUUAAACCAAUAGAUUGCAUCGGUUUAAAAGGCAAGACCGUCAAAUUGCGGGAAAGGGGUCAACAGCCGUUCAGUACCAAGUCUCAGGGGAAACUUUGAGAUGGCCUUGCAAAGGGUAUGGUAAUAAGCUGACGGACAUGGUCCUAACCACGCAGCCAAGUCCUAAGUCAACAGAUCUUCUGUUGAUAUGGAUGCAGUUCACAGACUAAAUGUCGGUCGGGGAAGAUGUAUUCUUCUCAUAAGAUAUAGUCGGACCUCUCCUUAAUGGGAGCUAGCGGAUGAAGUGAUGCAACACUGGAGCCGCUGGGAACUAAUUUGUAUGCGAAAGUAUAUUGAUUAGUUUUGGAGUACUCGUGGUCG
The method, boiled down: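 Six replicate transformations of E. coli BL21(DE3) with a pET-22b(+) library were grown overnight at 37°C or 30°C. The library randomised all eight P1ex-region intron nucleotides, the intron lying in the knt kanamycin-resistance gene, and plates were LB agar with or without 25 μg/mL kanamycin plus 100 μg/mL carbenicillin, 50 μM IPTG and 0.2% rhamnose. Pooled colonies were amplicon-sequenced on an Illumina HiSeq 2500, and fitness is the DiMSum error-weighted combination of wild-type-normalised replicate fold changes, kanamycin versus none.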

± gives the uncertainty stated by the source.

In the case of UUACAGCAAUAUUACGUGAU, the “self-splicing fitness (ln)” value (30 °C) is -4.22 ± 0.19 and the “self-splicing fitness (ln)” value (37 °C) is -2.37 ± 0.17. With ACCAAGCAAUAUUACGCAAG, the “self-splicing fitness (ln)” value reads like this: (30 °C) -2.05 ± 0.072; (37 °C) -2.12 ± 0.12. For UACUAGCAAUAUUACGGACG, in that order: -0.258 ± 0.098 and 0.0809 ± 0.12. GGAAAGCAAUAUUACGCCAC: the “self-splicing fitness (ln)” value (30 °C) is -2.68 ± 0.33.

As for GCAUAGCAAUAUUACGCACG, the “self-splicing fitness (ln)” value is, setting by setting: (30 °C) -2 ± 0.17; (37 °C) -2.05 ± 0.22.

Take CUACAGCAAUAUUACGGCUC: the “self-splicing fitness (ln)” value is, setting by setting: (30 °C) -3.53 ± 0.23; (37 °C) -1.8 ± 0.31. For UUAAAGCAAUAUUACGACUU, in that order: -1.11 ± 0.1 and -0.0515 ± 0.14. For AAAAAGCAAUAUUACGCAUC, in that order: -2.24 ± 0.13 and -1.34 ± 0.15. The matching figures for AAGCAGCAAUAUUACGCUAG: -2.56 ± 0.12 and -2.84 ± 0.14. For CAAUAGCAAUAUUACGUACA, the “self-splicing fitness (ln)” value by setting is: (30 °C) -3.18 ± 0.4; (37 °C) -1.82 ± 0.25. As for AGCGAGCAAUAUUACGCCGU, the “self-splicing fitness (ln)” value (37 °C) was -1.24 ± 0.34. For GUAUAGCAAUAUUACGACGA, the “self-splicing fitness (ln)” value runs as follows: (30 °C) -1.78 ± 0.24; (37 °C) -0.483 ± 0.19.

Take UCUCAGCAAUAUUACGUUUC: the “self-splicing fitness (ln)” value is, setting by setting: (30 °C) -4.29 ± 0.42; (37 °C) -1.97 ± 0.34. Regarding GCAAAGCAAUAUUACGCUUC, the “self-splicing fitness (ln)” value by setting is: (30 °C) -4.15 ± 0.33; (37 °C) -2.39 ± 0.33.

Regarding CAAUAGCAAUAUUACGGGAG, the “self-splicing fitness (ln)” value was -2.53 ± 0.085 (30 °C) and -2 ± 0.09 (37 °C).

Take UGGAAGCAAUAUUACGCGUG: the “self-splicing fitness (ln)” value is, setting by setting: (30 °C) -0.258 ± 0.091; (37 °C) -0.135 ± 0.12. With ACCUAGCAAUAUUACGCUUG, the “self-splicing fitness (ln)” value was -3.5 ± 0.16 (30 °C) and -2.04 ± 0.16 (37 °C).

For the sequence GGACAGCAAUAUUACGAAUG, the “self-splicing fitness (ln)” value (30 °C) was -2.09 ± 0.17 and the “self-splicing fitness (ln)” value (37 °C) was -1.9 ± 0.22. On to AGCGAGCAAUAUUACGGAAG, for which the “self-splicing fitness (ln)” value was -4.34 ± 0.42 (30 °C) and -2.68 ± 0.29 (37 °C).

On to AGCCAGCAAUAUUACGAUUG, for which the “self-splicing fitness (ln)” value (30 °C) was -4.59 ± 0.3 and the “self-splicing fitness (ln)” value (37 °C) is -0.923 ± 0.19. For ACAAAGCAAUAUUACGUUCU, in that order: -0.539 ± 0.055 and -0.567 ± 0.065.

As for UUCUAGCAAUAUUACGGCCG, the “self-splicing fitness (ln)” value (30 °C) is -1.96 ± 0.14 and the “self-splicing fitness (ln)” value (37 °C) is -1.56 ± 0.16.

For GGAAAGCAAUAUUACGUCCA, the “self-splicing fitness (ln)” value was -1.37 ± 0.28 (30 °C) and -0.294 ± 0.26 (37 °C). On to UUAUAGCAAUAUUACGGGAU, for which the “self-splicing fitness (ln)” value (30 °C) is -2.78 ± 0.39 and the “self-splicing fitness (ln)” value (37 °C) is -3.5 ± 0.42. On to UGGUAGCAAUAUUACGCAUA, for which the “self-splicing fitness (ln)” value by setting is: (30 °C) -1.11 ± 0.22; (37 °C) -0.547 ± 0.17. For CGAGAGCAAUAUUACGCGGG, the “self-splicing fitness (ln)” value is -3.05 ± 0.32 (30 °C) and -2.16 ± 0.27 (37 °C).

With UCAGAGCAAUAUUACGCUGA, the “self-splicing fitness (ln)” value (30 °C) is -3.04 ± 0.34 and the “self-splicing fitness (ln)” value (37 °C) is -2.1 ± 0.37. With UGCAAGCAAUAUUACGGGGG, the “self-splicing fitness (ln)” value is -3.16 ± 0.16 (30 °C) and -2.04 ± 0.15 (37 °C).

On to ACUGAGCAAUAUUACGAUCU, for which the “self-splicing fitness (ln)” value (30 °C) is -1.28 ± 0.12 and the “self-splicing fitness (ln)” value (37 °C) is -0.653 ± 0.1. For AAAUAGCAAUAUUACGUCGG, in that order: -2.54 ± 0.14 and -1.14 ± 0.13. Regarding CGGAAGCAAUAUUACGCUAU, the “self-splicing fitness (ln)” value is, setting by setting: (30 °C) -3.66 ± 0.25; (37 °C) -2.13 ± 0.2. The matching figures for UGUCAGCAAUAUUACGCGUG: 0.623 ± 0.069 and 0.117 ± 0.098. Turning to UAUGAGCAAUAUUACGUUUG, the “self-splicing fitness (ln)” value by setting is: (30 °C) -3.93 ± 0.26; (37 °C) -1.8 ± 0.15. On to AUAGAGCAAUAUUACGGGAU, for which the “self-splicing fitness (ln)” value is, setting by setting: (30 °C) -1.54 ± 0.11; (37 °C) -1.87 ± 0.2.

CCCGAGCAAUAUUACGUCUG: the “self-splicing fitness (ln)” value runs as follows: (30 °C) -3.73 ± 0.29; (37 °C) -2.32 ± 0.26. On to CACGAGCAAUAUUACGUAUU, for which the “self-splicing fitness (ln)” value is, setting by setting: (30 °C) -4.05 ± 0.17; (37 °C) -2.48 ± 0.13. For CUAUAGCAAUAUUACGCAUA, in that order: -3.93 ± 0.29 and -2.68 ± 0.24. The matching figures for GCACAGCAAUAUUACGGGUG: -4.37 ± 0.23 and -2.62 ± 0.16.
